Results from patent US20190300610A1 (published 2019).

Key:
[1] = molecular target: T1, cynomolgus macaque VISTA polypeptide (ELISA coat) (cynomolgus macaque, UniProt A0A7N9IB00 33-194); assay: ELISA
T1 chain: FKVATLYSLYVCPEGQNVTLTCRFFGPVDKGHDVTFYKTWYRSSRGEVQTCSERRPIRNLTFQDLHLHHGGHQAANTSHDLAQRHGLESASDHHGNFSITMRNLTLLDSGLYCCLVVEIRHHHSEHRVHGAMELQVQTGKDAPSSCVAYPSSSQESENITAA

- = assay: BLI; Figure 25B
[2] = molecular target: human VISTA polypeptide (ELISA coat) (UniProt Q9H7M9 33-194); assay: ELISA

B1: VSTB112 IgG1 (antibody, V domains shown)
VH: QVQLVQSGAEVKKPGSSVKVSCKASGGTFSSYAISWVRQAPGQGLEWMGGIIPIFGTANYAQKFQGRVTITADESTSTAYMELSSLRSEDTAVYYCARSSYGWSYEFDYWGQGTLVTVSS
VL: DIQMTQSPSSLSASVGDRVTITCRASQSIDTRLNWYQQKPGKAPKLLIYSASSLQSGVPSRFSGSGSGTDFTLTISSLQPEDFATYYCQQSAYNPITFGQGTKVEIKR
EC50 [1]: 5.2 pM

B2: mFcγRIII (receptor)
chain: ALPKAVVKLDPPWIQVLKEDMVTLMCEGTHNPGNSSTQWFHNGRSIRSQVQASYTFKATVNDSGEYRCQMEQTRLSDPVDLGVISDWLLLQTPQRVFLEGETITLRCHSWRNKLLNRISFFHNEKSVRYHHYKSNFSIPKANHSHSGDYYCKGSLGSTQHQSKPVTITVQDPATTSSISLVWYHT
Kd (-): 455000 pM

B3: anti-VISTA clone 4M2-C12 IgG1 (antibody)
heavy: not shown
light: DIVITQTPAILSTSPGEKVTMTCRASSSVGYIHWYQQKPGSSPKPWIYATSNLASGVPARFSGSGSGTSNSLTITRVEAEDAATYYCQQWSSYPPITFGGGTKLEVKRTVAAPSVFIFPPSDEQLKSGTASVVCLLNNFYPREAKVQWKVDNALQSGNSQESVTEQDSKDSTYSLSSTLTLSKADYEKHKVYACEVTHQGLSSPVTKSFNRGEC
EC50 [2]: 246 pM
